According to US8691772B2, “HSP60, HSP60 peptides and T cell vaccines for immunomodulation” (Yeda Research and Development Co. Ltd., priority 2005, dated 2014):

Tests used:
T-bet and GATA-3 [1] = test: T-bet and GATA-3 expression in oxazolone-reactive mouse T cells; assay type: cell-based; settings: 1 ng/ml for 2 hr
Protocol: Western blot analysis of T-cell nuclear extracts. Purified T cells (5×10^6) were preincubated with different concentrations of HSP60 for the indicated periods of time (37° C. in a 7% CO2, humidified atmosphere). […] T cells were lysed in 10 mM HEPES, 1.5 mM MgCl2, 1 mM dithiothreitol (DTT), 1 mM PMSF, 0.5% Nonidet P-40. The lysates were incubated on ice for 10 min and centrifuged at 2000 rpm for 10 min at 4° C. The supernatants (cytoplasmic extracts) were transferred and the pellet (nuclei) was suspended in buffer containing 30 mM HEPES, 450 mM NaCl, 25% Glycerol, 0.5 mM EDTA, 6 mM DTT, 12 mM MgCl2 1 mM PMSF, 10 μg/ml leupeptin, 10 μg/ml pepstatin, 1% phosphatase inhibitor cocktail, and the suspension was incubated on ice for 30 min. The lysates were cleared by centrifugation (30 min, 14×10^3 rpm, 4° C.), and the resulting supernatants analyzed for protein content. For NFATp analysis nuclear extracts were prepared with a NE-PER Nuclear and Cytoplasmic Extraction reagent (Pierce, Rockford, Ill.) according to the manufacturer's protocol. Sample buffer was then added and, after boiling, the samples, containing equal amounts of proteins, were separated on 10% SDS-PAGE gel and transferred to nitrocellulose membranes. […]

BALB/c lymph node-cells = test: T-cell migration assay towards SDF-1α, mouse lymph node cells; assay type: cell-based, BALB/c mice; settings: in vitro, HSP60 1 hr
From the text: Mice and mouse T cells. Female C57BL/6J were obtained from Harlan Olac (Bicester, U.K.). TLR2-knockout mice on the C57BL/6J background were kindly provided by Dr. S. Akira (Osaka University, Osaka, Japan). CD3^+ T cells were isolated by negative selection with anti-mouse antibody cocktail (Pan T cell kit; Miltenyi Biotec; CITY Germany). The labeled cells were then passed through separation columns (MidiMACS columns, Miltenyi Biotec). The purified cells (>97% T cells) were untreated or treated with HSP60 as described. Similarly, T cells were purified from the lymph nodes of BALB/c mice (females, 1.5 months of age).
T-cell migration assay. Migration of ^51[Cr]-labeled human and mouse T cells through FN or endothelial cells to recombinant human SDF-1α was examined in 48-well Transwell chemotaxis apparatus (5-μm pore filters, 6.5-mm diameter; Corning, N.Y.), as previously described (Zanin-Zhorov et al., 2003b). For transendothelial migration assays, 2×10^4 cells of HUVEC were layered on the filters and grown in 10% FCS M199 for 2 days before the performance of each assay. Then, HUVEC were stimulated with TNF-α (50 ng/ml) for 24 hr and washed.

[2] = test system: AKT, Pyk-2, p38, ERK, NF-κB, T-bet; test: Western blot analysis of CD4+CD25+ / CD4+CD25- T-cell lysates; assay type: cell-based, human
From the text: CFSE labeling of CD4^+CD25^− T cells. CD4^+CD25^− T cells were labeled with Vybrant™ CFDA SE Cell Tracer Kit (Molecular Probes; Eugene, Oreg.) according to the manufacturer's instructions. Labeled CD4^+CD25^− T cells were co-cultured with CD4^+CD25^+ T cells on anti-CD3 mAb, as described above, for 6 hr. After co-culture, CD4^+CD25^− T cells were isolated by sorting using a Becton Dickinson FACSVantage (Mountain View, Calif.).
Western blot analysis of T-cell lysates. Indicated populations of T cells (5×10^6) were preincubated with 1 ng/ml of HSP60 for 10 min (37° C. in a 7% CO2, humidified atmosphere). […] Total cell lysates, nuclear and cytoplasmic extracts were prepared as previously described (Zanin-Zhorov et al., 2003, section D of the Examples herein), analyzed for protein content. Sample buffer was then added and, after boiling, the samples, containing equal amounts of proteins, were separated on 10% SDS-PAGE gel and transferred to nitrocellulose membranes. The membranes were blocked and probed with the following mAb in the same buffer: anti-phosphorylated (p) ERK. […]

SOCS3 = SOCS3 expression in human T cells (immunoblot); assay type: cell-based
CD8^+ T cells = test: Co-culture of treated CD4+CD25+ T cells with CD8+ T cells; assay type: cell-based, human; settings: 1% or more HSP60-treated CD4+CD25+ T cells; anti-CD3 24 hr
ConA-induced hepatitis = ConA-induced hepatitis (acute liver injury); assay type: in vivo, BALB/c mice
T-bet and GATA-3 [3] = test: T-bet and GATA-3 expression in human T cells; assay type: cell-based
Protocol: Western blot analysis of T-cell nuclear extracts. Purified T cells (5×10^6) were preincubated with different concentrations of HSP60 for the indicated periods of time (37° C. in a 7% CO2, humidified atmosphere). […] T cells were lysed in 10 mM HEPES, 1.5 mM MgCl2, 1 mM dithiothreitol (DTT), 1 mM PMSF, 0.5% Nonidet P-40. The lysates were incubated on ice for 10 min and centrifuged at 2000 rpm for 10 min at 4° C. The supernatants (cytoplasmic extracts) were transferred and the pellet (nuclei) was suspended in buffer containing 30 mM HEPES, 450 mM NaCl, 25% Glycerol, 0.5 mM EDTA, 6 mM DTT, 12 mM MgCl2 1 mM PMSF, 10 μg/ml leupeptin, 10 μg/ml pepstatin, 1% phosphatase inhibitor cocktail, and the suspension was incubated on ice for 30 min. The lysates were cleared by centrifugation (30 min, 14×10^3 rpm, 4° C.), and the resulting supernatants analyzed for protein content. For NFATp analysis nuclear extracts were prepared with a NE-PER Nuclear and Cytoplasmic Extraction reagent (Pierce, Rockford, Ill.) according to the manufacturer's protocol. Sample buffer was then added and, after boiling, the samples, containing equal amounts of proteins, were separated on 10% SDS-PAGE gel and transferred to nitrocellulose membranes. The membranes were blocked with TBST buffer containing low-fat milk (5%), Tris pH 7.5 (20 mM), NaCl (135 mM) and Tween 20 (0.1%), and probed with the following mAb in the same buffer: anti-NF-κb (diluted 1:1000), anti-total (t) ERK (diluted 1:20,000), anti-NFATp (diluted 1:500), anti T-bet (diluted 1:1000), anti-GATA-3 (diluted 1:1000), anti-Lamin B (diluted 1:1000). Immunoreactive protein bands were visualized using labeled secondary antibodies and the enhanced ECL system.

[4] = i.p. 330 μl, 500 ng/ml, 18 and 1 hr prior to ConA, 24 hr after ConA
[5] = 1 ng/ml and 1 μg/ml, no anti-CD3

B1: HSP60: recombinant human heat shock protein 60 (StressGen Biotechnologies) (protein)
chain: AKDVKFGADARALMLQGVDLLADAVAVTMGPKGRTVIIEQSWGSPKVTKDGVTVAKSIDLKDKYKNIGAKLVQDVANNTNEEAGDGTTTATVLARSIAKEGFEKISKGANPVEIRRGVMLAVDAVIAELKKQSKPVTTPEEIAQVATISANGDKEIGNIISDAMKKVGRKGVITVKDGKTLNDELEIIEGMKFDRGYISPYFINTSKGQKCEFQDAYVLLSEKKISSIQSIVPALEIANAHRKPLVIIAEDVDGEALSTLVLNRLKVGLQVVAVKAPGFGDNRKNQLKDMAIATGGAVFGEEGLTLNLEDVQPHDLGKVGEVIVTKDDAMLLKGKGDKAQIEKRIQEIIEQLDVTTSEYEKEKLNERLAKLSDGVAVLKVGGTSDVEVNEKKDRVTDALNATRAAVEEGIVLGGGCALLRCIPALDSLTPANEDQKIGIEIIKRTLKIPAMTIAKNAGVEGSLIVEKIMQSSSEVGYDAMAGDFVNMVEKGIIDPTKVVRTALLDAAGVASLLTTAEVVVTEIPKEEKDPGMGAMGGMGGGMGGGMF
B1 was tested. Which GATA-3 expression (T-bet and GATA-3 [1]) did it give?
Its GATA-3 expression is “up-regulation of GATA-3 expression”.

And the T-bet expression (T-bet and GATA-3 [1])?
Its T-bet expression is “down-regulation of T-bet”.

What about the “migration of mouse lymph node cells towards SDF-1α” value (BALB/c lymph node-cells) of the same molecule?
Its value is “inhibited migration of mouse lymph node cells towards SDF-1α”.

And the “phosphorylation of AKT, Pyk-2, and p38” value ([2]; CD4+CD25+ T cells, 1 ng/ml, 10 min)?
The value was “induced phosphorylation of AKT, Pyk-2, and p38”.

What about the “ERK phosphorylation, NF-κB nuclear translocation and T-bet expression in CD4+CD25- T cells” value ([2]; co-culture with HSP60-treated CD4+CD25+ (1:9), anti-CD3, 6 hr) of the same molecule?
The value was “down-regulation of ERK phosphorylation, inhibition of nuclear translocation of NF-κB and T-bet expression”.

And the “time at which SOCS3 activation was apparent” value (SOCS3; 1 ng/ml)?
Its value is 30 min.

And the “time of peak SOCS3 activation” value (SOCS3; 1 ng/ml)?
Its value is 1 to 2 h.

And the “HSP60 concentrations of maximal SOCS3 activation” value (SOCS3; biphasic dose-response curve)?
Its value is 1 ng/mL and 1000 ng/mL.

What about the “expression of SOCS3” value (SOCS3; human T cells, 1 hr, 0-1000 ng/ml) of the same molecule?
The value was “activated the expression of SOCS3 (P<0.05)”.

What about the “inhibition of IFN-γ or TNF-α secretion in co-culture with CD8+ T cells” value (CD8^+ T cells) of the same molecule?
Its value is 3-4 fold.

And the “serum level of IL-6” value (ConA-induced hepatitis; 2 hr after ConA)?
The value was “to a lesser extent”.

And the “serum level of IL-10” value (ConA-induced hepatitis; 2 hr after ConA)?
Its value is “increasing the level of IL-10”.

What about the “serum level of TNF-α” value (ConA-induced hepatitis; 2 hr after ConA) of the same molecule?
The value was “reduced the levels of TNFα”.

What about the “histopathologic examination of liver sections” value (ConA-induced hepatitis; 24 hr after ConA) of the same molecule?
Its value is “only minimal liver damage”.

And the “GATA-3 expression in splenic T cells” value (ConA-induced hepatitis; P<0.05)?
Its value is “significantly augmenting the expression”.

What about the “serum ALT” value (ConA-induced hepatitis; [4]) of the same molecule?
Its value is “significantly (P≦0.05) inhibited the secretion of AST and ALT”.

What about the “serum AST” value (ConA-induced hepatitis; [4]) of the same molecule?
The value was “significantly (P≦0.05) inhibited the secretion of AST and ALT”.

What about the “SOCS3 expression in splenic T cells” value (ConA-induced hepatitis; mice treated with HSP60 only) of the same molecule?
The value was “became elevated following HSP60 treatment”.

And the “SOCS3 expression in splenic T cells” value (ConA-induced hepatitis; mice treated with both ConA and HSP60)?
Its value is “even more elevated”.

What about the “ConA-induced T-bet expression in splenic T cells” value (ConA-induced hepatitis; mouse, in vivo) of the same molecule?
Its value is “suppressed the ConA-induced expression”.

And the “T-bet expression induced by anti-CD3” value (T-bet and GATA-3 [3]; 1 ng/ml and 1 μg/ml, 1 hr pre-treatment)?
The value was “significantly (P<0.05) inhibited the T-bet expression induced by the anti-CD3”.

And the “protein level of GATA-3” value (T-bet and GATA-3 [3]; [5])?
Its value is “significantly (P<0.01) up-regulated the protein level of GATA-3”.

And the “protein level of T-bet” value (T-bet and GATA-3 [3]; [5])?
The value was “but not of T-bet”.

And the “GATA-3 expression with anti-CD3” value (T-bet and GATA-3 [3]; 1 hr pre-incubation)?
Its value is “significantly up-regulated the expression level of GATA-3”.
